Laboratory results as given in the supplement of paper PMC10126150.
± gives the standard deviation of the averaged measurements.

tested on: ATP; experiment: switch fluorescence ratio, 500 uM ATP over buffer (Cy3 cluster intensity, sum of 5 cycles each) (fold (ratio)); higher = stronger signal-on switching upon ATP binding; sequences stand for … in TCGTCGGCAGCGTCAGATGTGTATAAGAGACAGTTTTTTTTTTTTTTTTTTTTTTTTT…TC; settings: aptamer strand: ATP DNA aptamer (quencher-CACCTGGGGGAGTATTGCGGAGGAAGG + anchor), 100 nM annealed; ATP concentration: 500 uM
Summary of the method: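 Between each of five buffer/ATP cycles, the flow-cell was stripped with NaOH and re-annealed. Each cycle imaged Cy3-labelled switching-strand clusters, annealed to 100 nM quencher-labelled ATP aptamer on a modified Illumina MiSeq flow-cell, first in selection buffer and then after 15 min with 500 uM ATP at 22 °C. The fluorescence ratio is summed target-cycle over summed buffer-cycle Cy3 intensity per cluster, averaged per switch-domain sequence, with clusters outside 100-1000 RFU excluded.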
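Also: ATP exposure 15 min at 22 °C before imaging.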

Question: How did the switch fluorescence ratio turn out when CGGGCCACGT was run?
Answer: 0.997 ± 0.034

Question: How did the switch fluorescence ratio turn out when GAAGATAGGG was run?
Answer: 0.998 ± 0.011

Question: Which switch fluorescence ratio does the source give for ATTTATGCGG here?
Answer: 0.985 ± 0.029

Question: For CGTGATGGAG, which switch fluorescence ratio is on record?
Answer: 1.011 ± 0.009

Question: How did the switch fluorescence ratio turn out when TTACGGTTGG was run?
Answer: 0.995 ± 0.025

Question: With CTAAACCGGT as the sequence, how does the switch fluorescence ratio read?
Answer: 0.989 ± 0.015

Question: Which switch fluorescence ratio does the source give for TTCCCTTTTG here?
Answer: 1.02 ± 0.0057

Question: Which switch fluorescence ratio does the source give for TTTTCAAGTT here?
Answer: 1.21 ± 0.38

Question: With GTTTAAAAAA as the sequence, how does the switch fluorescence ratio read?
Answer: 1 ± 0.021

Question: Which switch fluorescence ratio does the source give for TAACAAATAG here?
Answer: 0.9741 ± 0.0062

Question: For TGACTTGAGC, which switch fluorescence ratio is on record?
Answer: 1.01 ± 0.058

Question: Which switch fluorescence ratio does the source give for AAAGAGAAGT here?
Answer: 1.02 ± 0.019

Question: Which switch fluorescence ratio does the source give for TATCTTTTTC here?
Answer: 1.04 ± 0.084

Question: For ACATTTTTAG, which switch fluorescence ratio is on record?
Answer: 1.01 ± 0.013

Question: For ATTGTAGGC, which switch fluorescence ratio is on record?
Answer: 1.01 ± 0.029

Question: How did the switch fluorescence ratio turn out when GTAATGGGGT was run?
Answer: 0.966 ± 0.029

Question: CTGGGCAGGG was tested. Which switch fluorescence ratio did it give?
Answer: 1.02 ± 0.055

Question: Which switch fluorescence ratio does the source give for GTATGAAAAG here?
Answer: 0.9736 ± 0.0061

Question: ATTTTGAGTT was tested. Which switch fluorescence ratio did it give?
Answer: 0.982 ± 0.016

Question: For GCTTTTGGGC, which switch fluorescence ratio is on record?
Answer: 0.963 ± 0.023

Question: With GATTTGAATT as the sequence, how does the switch fluorescence ratio read?
Answer: 0.977 ± 0.025

Question: AAGACTGTGC was tested. Which switch fluorescence ratio did it give?
Answer: 1.01 ± 0.022

Question: Which switch fluorescence ratio does the source give for TAAAAGTTTG here?
Answer: 0.996 ± 0.034

Question: GTGCTTTGCG was tested. Which switch fluorescence ratio did it give?
Answer: 0.9928 ± 0.0014

Question: With CTGTAGTAGC as the sequence, how does the switch fluorescence ratio read?
Answer: 2.38 ± 1.1

Question: Which switch fluorescence ratio does the source give for TTTTGGATTT here?
Answer: 0.993 ± 0.018

Question: With TTTTAAAGTT as the sequence, how does the switch fluorescence ratio read?
Answer: 0.968 ± 0.018

Question: With TCGAGTGCGT as the sequence, how does the switch fluorescence ratio read?
Answer: 0.978 ± 0.014

Question: Which switch fluorescence ratio does the source give for GTGTGAGTTC here?
Answer: 1.01 ± 0.017

Question: With GTTCCCAGGA as the sequence, how does the switch fluorescence ratio read?
Answer: 1.09 ± 0.02

Question: Which switch fluorescence ratio does the source give for ACTGAGTAA here?
Answer: 1.01 ± 0.076

Question: With TCAACCAATG as the sequence, how does the switch fluorescence ratio read?
Answer: 1.04 ± 0.0039

Question: With TGTTTGAGG as the sequence, how does the switch fluorescence ratio read?
Answer: 0.9559 ± 0.009

Question: How did the switch fluorescence ratio turn out when AAATCCAATA was run?
Answer: 1.0106 ± 0.0007

Question: How did the switch fluorescence ratio turn out when GAGGTAAAGC was run?
Answer: 1 ± 0.08

Question: GTGGTGGCGG was tested. Which switch fluorescence ratio did it give?
Answer: 1.02 ± 0.017

Question: How did the switch fluorescence ratio turn out when GTTTTTTCCG was run?
Answer: 0.992 ± 0.012

Question: Which switch fluorescence ratio does the source give for GACGTAACGG here?
Answer: 1.082 ± 0.0014

Question: TTTATCATAA was tested. Which switch fluorescence ratio did it give?
Answer: 0.958 ± 0.017

Question: With CATTATGGGA as the sequence, how does the switch fluorescence ratio read?
Answer: 1.009 ± 0.0063

Question: CAATTGGACA was tested. Which switch fluorescence ratio did it give?
Answer: 0.982 ± 0.01

Question: How did the switch fluorescence ratio turn out when TTATTGATCC was run?
Answer: 0.9978 ± 0.0019

Question: With GGATCGGTCA as the sequence, how does the switch fluorescence ratio read?
Answer: 1.016 ± 0.0089

Question: Which switch fluorescence ratio does the source give for ATGGATGGGG here?
Answer: 0.998 ± 0.028

Question: How did the switch fluorescence ratio turn out when ATGTGTGGAG was run?
Answer: 1.013 ± 0.0048

Question: GTTAGGGGAG was tested. Which switch fluorescence ratio did it give?
Answer: 1 ± 0.042

Question: CGAGGTAGCT was tested. Which switch fluorescence ratio did it give?
Answer: 1 ± 0.021

Question: Which switch fluorescence ratio does the source give for AGGGGGCTCT here?
Answer: 1.02 ± 0.029

Question: How did the switch fluorescence ratio turn out when GGGTATGTAT was run?
Answer: 0.992 ± 0.027

Question: CACGAAGGAA was tested. Which switch fluorescence ratio did it give?
Answer: 1.07 ± 0.019

Question: For ACGGAGGCAT, which switch fluorescence ratio is on record?
Answer: 1.31 ± 0.024

Question: With TGTGTTTACC as the sequence, how does the switch fluorescence ratio read?
Answer: 1.01 ± 0.043

Question: Which switch fluorescence ratio does the source give for CAGTTGACTC here?
Answer: 1 ± 0.072

Question: GGATTATGGA was tested. Which switch fluorescence ratio did it give?
Answer: 0.971 ± 0.025

Question: How did the switch fluorescence ratio turn out when AGATTGCTTG was run?
Answer: 0.977 ± 0.03

Question: Which switch fluorescence ratio does the source give for AACCAGTTTT here?
Answer: 0.98 ± 0.027

Question: With GGGGGCATCG as the sequence, how does the switch fluorescence ratio read?
Answer: 1.01 ± 0.018

Question: For AACTCGGGGT, which switch fluorescence ratio is on record?
Answer: 1.02 ± 0.05

Question: How did the switch fluorescence ratio turn out when TCGGGGATAG was run?
Answer: 0.979 ± 0.047

Question: TAATATATTT was tested. Which switch fluorescence ratio did it give?
Answer: 1.01 ± 0.028

Question: How did the switch fluorescence ratio turn out when ATAGTGACGT was run?
Answer: 0.9826 ± 0.0075

Question: With GCTTTGCGCT as the sequence, how does the switch fluorescence ratio read?
Answer: 0.988 ± 0.015

Question: Which switch fluorescence ratio does the source give for GGCTGGATCT here?
Answer: 0.975 ± 0.027

Question: For CGATTTCCTA, which switch fluorescence ratio is on record?
Answer: 0.987 ± 0.015

Question: How did the switch fluorescence ratio turn out when ACCTATCTTG was run?
Answer: 1.03 ± 0.016

Question: How did the switch fluorescence ratio turn out when CGGAGCGCGT was run?
Answer: 0.991 ± 0.019

Question: How did the switch fluorescence ratio turn out when TTGGGTTTCA was run?
Answer: 0.995 ± 0.053

Question: Which switch fluorescence ratio does the source give for GGGTGCGTTG here?
Answer: 1.04 ± 0.024

Question: TGGGGACTTT was tested. Which switch fluorescence ratio did it give?
Answer: 1.04 ± 0.045

Question: Which switch fluorescence ratio does the source give for AATCAGCCTC here?
Answer: 1.01 ± 0.016

Question: Which switch fluorescence ratio does the source give for AGGGTAATGG here?
Answer: 1.03 ± 0.021

Question: How did the switch fluorescence ratio turn out when TAAGGGGTTC was run?
Answer: 0.982 ± 0.022

Question: AACCGAACGA was tested. Which switch fluorescence ratio did it give?
Answer: 2.09 ± 0.072

Question: How did the switch fluorescence ratio turn out when ATCGGAGGTG was run?
Answer: 1.02 ± 0.062

Question: GGTTGGTCTA was tested. Which switch fluorescence ratio did it give?
Answer: 0.979 ± 0.028

Question: How did the switch fluorescence ratio turn out when GATAGGGTAC was run?
Answer: 1.0351 ± 0.0001

Question: TAATCACAAT was tested. Which switch fluorescence ratio did it give?
Answer: 1.032 ± 0.0044

Question: Which switch fluorescence ratio does the source give for TTTAAAGCGC here?
Answer: 1.02 ± 0.043

Question: For CCGATTTTTA, which switch fluorescence ratio is on record?
Answer: 0.977 ± 0.053

Question: Which switch fluorescence ratio does the source give for AGTGGGGTAC here?
Answer: 1.03 ± 0.032

Question: Which switch fluorescence ratio does the source give for CCAGTTGGCA here?
Answer: 1 ± 0.031

Question: For GGAAAAATGA, which switch fluorescence ratio is on record?
Answer: 1 ± 0.034

Question: GAAGGTGAGG was tested. Which switch fluorescence ratio did it give?
Answer: 1.01 ± 0.019

Question: ATGTAATATT was tested. Which switch fluorescence ratio did it give?
Answer: 1.01 ± 0.033

Question: Which switch fluorescence ratio does the source give for AAATAATTTA here?
Answer: 0.955 ± 0.038

Question: How did the switch fluorescence ratio turn out when GGCGGGTATG was run?
Answer: 1.0223 ± 0.00097

Question: With TTTTCGCTGT as the sequence, how does the switch fluorescence ratio read?
Answer: 1.02 ± 0.016

Question: For CGCGGGGGGG, which switch fluorescence ratio is on record?
Answer: 1 ± 0.025

Question: How did the switch fluorescence ratio turn out when AAGGGAAGCG was run?
Answer: 1.01 ± 0.039

Question: How did the switch fluorescence ratio turn out when GCGGAGCTTT was run?
Answer: 1.01 ± 0.015

Question: For TACTGTGACA, which switch fluorescence ratio is on record?
Answer: 1.14 ± 0.012

Question: Which switch fluorescence ratio does the source give for CCAAAGGGCC here?
Answer: 1.01 ± 0.071

Question: AATTGTTGTT was tested. Which switch fluorescence ratio did it give?
Answer: 0.998 ± 0.033

Question: How did the switch fluorescence ratio turn out when ACTGGGTCCT was run?
Answer: 0.973 ± 0.015

Question: With TATTAGGTA as the sequence, how does the switch fluorescence ratio read?
Answer: 1.01 ± 0.017

Question: Which switch fluorescence ratio does the source give for AAAGGTTTTT here?
Answer: 0.988 ± 0.016

Question: How did the switch fluorescence ratio turn out when CTTGACGGTT was run?
Answer: 1.01 ± 0.092

Question: With GAGCTATGTG as the sequence, how does the switch fluorescence ratio read?
Answer: 1.03 ± 0.0011

Question: Which switch fluorescence ratio does the source give for GTTTAATTTA here?
Answer: 1.01 ± 0.03

Question: With ATCCTCTGCC as the sequence, how does the switch fluorescence ratio read?
Answer: 3.16 ± 0.72
